Substitutions are numbered along the chain they refer to. Names may count otherwise.
B1: Ie_S2_P4E.1_K4.1_C4.1_H4.1_A4.1_[+6CTCTC]_F4.1_T4.1 (ssRNA)
RNA: UUUGAUUAAUAUGAUAUCGUUCUUUCUUGUAUACUCUCUUAUUCUUUCUCGAUAUCAUAUUAAUCUUU
B2: Ie_S2_P4E.1_K4.1_C4.1_H4.1_A4.1_F4.1_[+9CTCTC]_T4.1 (ssRNA)
RNA: B1 RNA with C34U, C36A, U37C, C38U, U39C, A41C
B3: Ie_S2_P4E.1_K4.1_C4.1_H4.1_A4.1_F4.1_[+9TTCCT]_T4.1 (ssRNA)
RNA: B1 RNA with C34U, C36A, C38U, U39C, U40C, A41U
B4: Ie_S2_P4E.1_K4.1_C4.1_H4.1_A4.1_F4.1_[+9CCTCT]_T4.1 (ssRNA)
RNA: B1 RNA with C34U, C36A, U37C, U40C, A41U
B5: Ie_S2_P4E.1_K4.1_C4.1_H4.1_A4.1_F4.1_[+8TTCCT]_T4.1 (ssRNA)
RNA: B1 RNA with C34U, C36U, U39C
B6: Ie_S2_P4E.1_K4.1_C4.1_H4.1_A4.1_F4.1_[+8TCTCT]_T4.1 (ssRNA)
RNA: B1 RNA with C34U, C36U, U37C, C38U, U39C
B7: Ie_S2_P4E.1_K4.1_C4.1_H4.1_A4.1_F4.1_[+9CCCTT]_T4.1 (ssRNA)
RNA: B1 RNA with C34U, C36A, U37C, U39C, A41U
B8: Ie_S2_P4E.1_K4.1_C4.1_H4.1_A4.1_[+6CCCTT]_F4.1_T4.1 (ssRNA)
RNA: B1 RNA with U35C, C38U
B9: Ie_S2_P4E.1_K4.1_C4.1_H4.1_A4.1_[+7CTCTC]_F4.1_T4.1 (ssRNA)
RNA: B1 RNA with C34U, U35C, C36U, U37C, C38U, U39C
B10: Ie_S2_P4E.1_K4.1_C4.1_H4.1_A4.1_F4.1_[+8CCTCT]_T4.1 (ssRNA)
RNA: B1 RNA with C34U, U37C, C38U, U39C
B11: Ie_S2_P4E.1_K4.1_C4.1_H4.1_A4.1_F4.1_[+9TCTCT]_T4.1 (ssRNA)
RNA: B1 RNA with C34U, C36A, U40C, A41U
B12: Ic_S2_P3E.1_K3.1_C3.1_H3.1_A3.1_[A6C]_F3.1_[A8T]_T3.1 (ssRNA)
RNA: UUUGAUUAAUAUGAUAUCGUUCUUUCUUGUAUCUUUUCUUUCUCGAUAUCAUAUUAAUCUUU
B13: Ib_S2_P3E.1_K3.1_C3.1_H3.1_[T1G]_[G2C]_A3.1_F3.1_T3.1 (ssRNA)
RNA: B12 RNA with U28G, G29C, C33A, U35A
B14: Ib_S2_P3E.1_K3.1_C3.1_H3.1_[T1C]_[G2C]_A3.1_F3.1_T3.1 (ssRNA)
RNA: B12 RNA with U28C, G29C, C33A, U35A
B15: Ia_S2_P3E.1_K3.1_C3.1_H3.1_[A4C]_A3.1_F3.1_T3.1 (ssRNA)
RNA: B12 RNA with A31C, C33A, U35A
B16: Ib_S2_P3E.1_K3.1_C3.1_H3.1_A3.1_[A6T]_F3.1_[A8T]_T3.1 (ssRNA)
RNA: B12 RNA with C33U
B17: Ib_S2_P3E.1_K3.1_C3.1_H3.1_[T1G]_[G2T]_A3.1_F3.1_T3.1 (ssRNA)
RNA: B12 RNA with U28G, G29U, C33A, U35A
B18: Ie_S2_P4E.1_K4.1_C4.1_H4.1_A4.1_[+7CC]_F4.1_T4.1 (ssRNA)
RNA: UUUGAUUAAUAUGAUAUCGUUCUUUCUUGUAUAUCCUAUUCUUUCUCGAUAUCAUAUUAAUCUUU
B19: Ie_S2_P4E.1_K4.1_C4.1_H4.1_A4.1_F4.1_[+8TC]_T4.1 (ssRNA)
RNA: B18 RNA with C35U, C36U, U37C
B20: Ie_S2_P4E.1_K4.1_C4.1_H4.1_A4.1_F4.1_[+8CT]_T4.1 (ssRNA)
RNA: B18 RNA with C35U
B21: Ie_S2_P4E.1_K4.1_C4.1_H4.1_A4.1_F4.1_[+9TC]_T4.1 (ssRNA)
RNA: B18 RNA with C35U, C36A, A38C
B22: Ie_S2_P4E.1_K4.1_C4.1_H4.1_A4.1_F4.1_[+9CC]_T4.1 (ssRNA)
RNA: B18 RNA with C35U, C36A, U37C, A38C
B23: Ie_S2_P4E.1_K4.1_C4.1_H4.1_A4.1_F4.1_[+8CC]_T4.1 (ssRNA)
RNA: B18 RNA with C35U, U37C
B24: Ie_S2_P4E.1_K4.1_C4.1_H4.1_A4.1_[+7CCC]_F4.1_T4.1 (ssRNA)
RNA: UUUGAUUAAUAUGAUAUCGUUCUUUCUUGUAUAUCCCUAUUCUUUCUCGAUAUCAUAUUAAUCUUU
B25: Ie_S2_P4E.1_K4.1_C4.1_H4.1_A4.1_F4.1_[+9CCC]_T4.1 (ssRNA)
RNA: B24 RNA with C35U, C36A, U38C, A39C
B26: Ie_S2_P4E.1_K4.1_C4.1_H4.1_A4.1_F4.1_[+8CTC]_T4.1 (ssRNA)
RNA: B24 RNA with C35U, C37U, U38C
B27: Ie_S2_P4E.1_K4.1_C4.1_H4.1_A4.1_F4.1_[+8CCT]_T4.1 (ssRNA)
RNA: B24 RNA with C35U
B28: Ie_S2_P5E.1_K5.1_C5.1_H5.1_[+1CC]_A5.1_F5.1_T5.1 (ssRNA)
RNA: B24 RNA with G29C, U30C, A31G, C35U, C36A, C37U
B29: Ie_S2_P4E.1_K4.1_C4.1_H4.1_A4.1_F4.1_[+9TTT]_T4.1 (ssRNA)
RNA: B24 RNA with C35U, C36A, C37U, A39U
B30: Ie_S2_P4E.1_K4.1_C4.1_H4.1_A4.1_[+7CTC]_F4.1_T4.1 (ssRNA)
RNA: B24 RNA with C36U
B31: Ie_S2_P4E.1_K4.1_C4.1_H4.1_A4.1_F4.1_[+9TTC]_T4.1 (ssRNA)
RNA: B24 RNA with C35U, C36A, C37U, A39C
B32: Ie_S2_P4E.1_K4.1_C4.1_H4.1_A4.1_F4.1_[+8TCC]_T4.1 (ssRNA)
RNA: B24 RNA with C35U, C36U, U38C
B33: Ie_S2_P4E.1_K4.1_C4.1_H4.1_A4.1_F4.1_[+8C]_T4.1 (ssRNA)
RNA: UUUGAUUAAUAUGAUAUCGUUCUUUCUUGUAUAUUCAUUCUUUCUCGAUAUCAUAUUAAUCUUU
B34: Ie_S2_P4E.1_K4.1_C4.1_H4.1_A4.1_F4.1_[+9T]_T4.1 (ssRNA)
RNA: B33 RNA with C36A, A37U
B35: Ie_S2_P4E.1_K4.1_C4.1_H4.1_A4.1_F4.1_[+9C]_T4.1 (ssRNA)
RNA: B33 RNA with C36A, A37C
B36: Ie_S2_P4E.1_K4.1_C4.1_H4.1_A4.1_[+6CTCT]_F4.1_T4.1 (ssRNA)
RNA: UUUGAUUAAUAUGAUAUCGUUCUUUCUUGUAUACUCUUUAUUCUUUCUCGAUAUCAUAUUAAUCUUU
B37: Ie_S2_P4E.1_K4.1_C4.1_H4.1_A4.1_[+7CCCT]_F4.1_T4.1 (ssRNA)
RNA: B36 RNA with C34U, U35C, U37C
B38: Ie_S2_P4E.1_K4.1_C4.1_H4.1_A4.1_[+6CCTC]_F4.1_T4.1 (ssRNA)
RNA: B36 RNA with U35C, C36U, U37C
B39: Ie_S2_P4E.1_K4.1_C4.1_H4.1_A4.1_[+7CTCT]_F4.1_T4.1 (ssRNA)
RNA: B36 RNA with C34U, U35C, C36U, U37C
B40: Ie_S2_P5E.1_K5.1_C5.1_H5.1_[+1TCT]_A5.1_F5.1_T5.1 (ssRNA)
RNA: B36 RNA with G29U, U30C, A31U, U32G, A33U, C34A, C36U, U37A
B41: Ie_S2_P4E.1_K4.1_C4.1_H4.1_A4.1_F4.1_[+9TCTC]_T4.1 (ssRNA)
RNA: B36 RNA with C34U, C36A, U38C, A40C
B42: Ie_S2_P5E.1_K5.1_C5.1_H5.1_[+1CTC]_A5.1_F5.1_T5.1 (ssRNA)
RNA: B36 RNA with G29C, A31C, U32G, A33U, C34A, C36U, U37A
B43: Ie_S2_P4E.1_K4.1_C4.1_H4.1_A4.1_F4.1_[+8CCCT]_T4.1 (ssRNA)
RNA: B36 RNA with C34U, U37C, U38C
B44: Ie_S2_P4E.1_K4.1_C4.1_H4.1_A4.1_F4.1_[+8CCTC]_T4.1 (ssRNA)
RNA: B36 RNA with C34U, U37C, U39C
B45: Ie_S2_P5E.1_K5.1_C5.1_H5.1_[+1TTC]_A5.1_F5.1_T5.1 (ssRNA)
RNA: B36 RNA with G29U, A31C, U32G, A33U, C34A, C36U, U37A
B46: Ie_S2_P4E.1_K4.1_C4.1_H4.1_A4.1_F4.1_[+8CTCT]_T4.1 (ssRNA)
RNA: B36 RNA with C34U, U38C
B47: Ie_S2_P4E.1_K4.1_C4.1_H4.1_A4.1_[+6CCCT]_F4.1_T4.1 (ssRNA)
RNA: B36 RNA with U35C
B48: Ie_S2_P5E.1_K5.1_C5.1_H5.1_[+1CCC]_A5.1_F5.1_T5.1 (ssRNA)
RNA: B36 RNA with G29C, U30C, A31C, U32G, A33U, C34A, C36U, U37A
B49: Ie_S2_P5E.1_K5.1_C5.1_H5.1_[+1CTT]_A5.1_F5.1_T5.1 (ssRNA)
RNA: B36 RNA with G29C, A31U, U32G, A33U, C34A, C36U, U37A
B50: Ie_S2_P4E.1_K4.1_C4.1_H4.1_A4.1_[+7CCTC]_F4.1_T4.1 (ssRNA)
RNA: B36 RNA with C34U, U35C, U38C
B51: Ie_S2_P5E.1_K5.1_C5.1_H5.1_[+1TCC]_A5.1_F5.1_T5.1 (ssRNA)
RNA: B36 RNA with G29U, U30C, A31C, U32G, A33U, C34A, C36U, U37A

What follows are binders tested against T1, PUF4 RNA-binding domain (Saccharomyces cerevisiae, UniProt P25339 537-888) (assay: Mg; RNA-MaP; 20 mM Na-HEPES pH 7.4, 30 mM KOAc, 0.75 mM MgCl2, 0.1% Tween-20, 5% glycerol, 0.1 mg/mL BSA, 2 mM DTT; 25 C; 0.0125-409.6 nM protein). Conditions: tags: N-His6-TEV cleaved; C-SNAP kept, Cy3B-labelled; label: tethered on chip by stalled RNA polymerase.
T1 sequence: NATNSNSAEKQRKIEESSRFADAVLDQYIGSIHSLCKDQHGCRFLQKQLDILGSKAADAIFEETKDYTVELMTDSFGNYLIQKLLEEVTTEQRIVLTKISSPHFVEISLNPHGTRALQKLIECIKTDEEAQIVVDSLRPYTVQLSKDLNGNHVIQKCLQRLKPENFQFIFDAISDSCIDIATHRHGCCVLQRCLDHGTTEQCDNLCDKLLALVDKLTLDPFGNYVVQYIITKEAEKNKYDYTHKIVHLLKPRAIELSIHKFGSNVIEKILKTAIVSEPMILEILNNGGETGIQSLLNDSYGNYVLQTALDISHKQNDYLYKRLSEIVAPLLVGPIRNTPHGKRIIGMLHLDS
For B1, the Kd was 6.56 nM. B2 gave a Kd of 0.532 nM. Binder B3 has a Kd of 0.282 nM. B4 gave a Kd of 0.733 nM. Work on B5 yielded a Kd of 3.81 nM. For B6, the Kd was 3.78 nM. For B7, the Kd was 0.523 nM. With B8 the Kd was 20.8 nM. B9 was tested, and the Kd was 9 nM. With B10 the Kd was 4.43 nM. Binder B11 has a Kd of 0.382 nM. Binder B12 has a Kd of 9.3 nM. B13 gave a Kd of 798 nM. With B14 the Kd was 495 nM. Binder B15 has a Kd of 184 nM. Work on B16 yielded a Kd of 10.5 nM. In the case of B17, the Kd is reported as 15.6 nM. B18 was tested, and the Kd was 11.7 nM. B19 was tested, and the Kd was 6.93 nM. Binder B20 has a Kd of 3.57 nM. In the case of B21, the Kd is reported as 0.411 nM. Binder B22 has a Kd of 0.543 nM. B23 gave a Kd of 5.04 nM. In the case of B24, the Kd is reported as 13.5 nM. B25 was tested, and the Kd was 0.512 nM. B26 was tested, and the Kd was 5.23 nM. Binder B27 has a Kd of 3.9 nM. B28 showed a Kd of 565 nM. Work on B29 yielded a Kd of 0.208 nM. B30 gave a Kd of 8.21 nM. B31 gave a Kd of 0.446 nM. B32 was tested, and the Kd was 3.54 nM. Binder B33 has a Kd of 6.81 nM. In the case of B34, the Kd is reported as 0.265 nM. For B35, the Kd was 1.33 nM. In the case of B36, the Kd is reported as 6.3 nM. Work on B37 yielded a Kd of 10.1 nM. B38 showed a Kd of 14.8 nM. B39 was tested, and the Kd was 12.8 nM. With B40 the Kd was 1.14 nM. With B41 the Kd was 0.324 nM. In the case of B42, the Kd is reported as 355 nM. With B43 the Kd was 3.71 nM. B44 was tested, and the Kd was 4.56 nM. Binder B45 has a Kd of 374 nM. In the case of B46, the Kd is reported as 4.74 nM. Binder B47 has a Kd of 26.5 nM. In the case of B48, the Kd is reported as 178 nM. B49 was tested, and the Kd was 1.16 nM. Work on B50 yielded a Kd of 12.2 nM. B51 gave a Kd of 198 nM.
